Laboratory results: patent publication US20080161234A1, “Composition Comprising Lactic Acid and Lactoferrin” (priority 2004, published 2008)
Entries after “also recorded” stand apart in the source; their conditions may differ.

Columns and labels:
Type in all cases: cell-based
[1] = test system: C. albicans (ATCC 64549); experiment: Microbicidal microplate assay (viable counts), C. albicans
Protocol: The bacterial strains S. aureus 1800 (CCUG 1800), E. coli 06, and the yeast C. albicans (ATCC 64549) have been used in the microplate assay. All microorganisms were cultured in brain heart infusion medium (BHI) on a shaker over night at 37° C. A volume of the culture was transferred to a new tube with BHI and incubated for two more h on the shaker. The bacteria were harvested in the log phase, washed once and thereafter suspended in the broth used for the microplate assay. The suspension was adjusted spectrophotometrically and diluted to a concentration of approximately 4×10^6 cells per ml at 650 nm. Washed cells were suspended in 0.2% BP (pH 7.0) or BHI medium diluted 1/10 (0.34%, pH 6.7-6.9) (Difco, USA). The concentration of bacterial or fungal cells was spectrophotometrically adjusted. LF or peptide, serially diluted in BHIdil or BP by twofold steps (unless otherwise stated), were added in triplicate to the wells of a microtiterplate (200 ul per well). The bacterial or yeast cell solutions were added in 10 ul volumes to give a final concentration of approximately 2×10^5 cells per ml. The concentration of the stock solution was always checked by viable counts. The microplate was incubated at 37° C. in a humid chamber for 2 h unless otherwise stated. Five ul were taken from each well and added as a drop onto a blood agar plate and incubated over night at 37° C. In some experiments more thorough viable counts were performed and the killing was expressed as remaining colony forming units in relation to the inoculum. The lower limit for detection of microorganisms was 200 CFU/ml. The antimicrobial activity of human LF was analysed by the microbicidal assay described above. Different microbes such as C. albicans, E. coli and S. aureus were analysed with respect to their survival in lactate (not containing the inert gel base, which makes the gel unsuitable for the microbicidal assay) containing LF. […] LF was incubated together with various concentrations of lactate diluted in 0.2% bactopeptone and C. albicans for 2 h. Thereafter each solution was analysed for viable counts.

[2] = test system: E. coli 06; experiment: Microbicidal microplate-droplet assay, E. coli; settings: 1 mg/ml, lactate 0.2% and lactate free solution, 2 h
Protocol: The bacterial strains S. aureus 1800 (CCUG 1800), E. coli 06, and the yeast C. albicans (ATCC 64549) have been used in the microplate assay. All microorganisms were cultured in brain heart infusion medium (BHI) on a shaker over night at 37° C. A volume of the culture was transferred to a new tube with BHI and incubated for two more h on the shaker. The bacteria were harvested in the log phase, washed once and thereafter suspended in the broth used for the microplate assay. The suspension was adjusted spectrophotometrically and diluted to a concentration of approximately 4×10^6 cells per ml at 650 nm. Washed cells were suspended in 0.2% BP (pH 7.0) or BHI medium diluted 1/10 (0.34%, pH 6.7-6.9) (Difco, USA). The concentration of bacterial or fungal cells was spectrophotometrically adjusted. LF or peptide, serially diluted in BHIdil or BP by twofold steps (unless otherwise stated), were added in triplicate to the wells of a microtiterplate (200 ul per well). The bacterial or yeast cell solutions were added in 10 ul volumes to give a final concentration of approximately 2×10^5 cells per ml. The concentration of the stock solution was always checked by viable counts. The microplate was incubated at 37° C. in a humid chamber for 2 h unless otherwise stated. Five ul were taken from each well and added as a drop onto a blood agar plate and incubated over night at 37° C. In some experiments more thorough viable counts were performed and the killing was expressed as remaining colony forming units in relation to the inoculum. The lower limit for detection of microorganisms was 200 CFU/ml. The antimicrobial activity of human LF was analysed by the microbicidal assay described above. Different microbes such as C. albicans, E. coli and S. aureus were analysed with respect to their survival in lactate (not containing the inert gel base, which makes the gel unsuitable for the microbicidal assay) containing LF.

[3] = test system: L. jensenii; experiment: Survival of L. jensenii in lactate with LF; settings: 2 mg/ml, lactate 0.2%, 2 h
Protocol: (§1) L. gasseri and L. jensenii were cultured on chocolate-agar plates for 24 h in 5% CO2/95% air. They were thereafter harvested and added to BHI (0.34%). After washing the bacterial solutions were adjusted spectrophotometrically and diluted to 8×10^6 bacteria/ml.
(§2) Washed cells were suspended in 0.2% BP (pH 7.0) or BHI medium diluted 1/10 (0.34%, pH 6.7-6.9) (Difco, USA). The concentration of bacterial or fungal cells was spectrophotometrically adjusted. LF or peptide, serially diluted in BHIdil or BP by twofold steps (unless otherwise stated), were added in triplicate to the wells of a microtiterplate (200 ul per well). The bacterial or yeast cell solutions were added in 10 ul volumes to give a final concentration of approximately 2×10^5 cells per ml. The concentration of the stock solution was always checked by viable counts. The microplate was incubated at 37° C. in a humid chamber for 2 h unless otherwise stated. Five ul were taken from each well and added as a drop onto a blood agar plate and incubated over night at 37° C. In some experiments more thorough viable counts were performed and the killing was expressed as remaining colony forming units in relation to the inoculum. The lower limit for detection of microorganisms was 200 CFU/ml.
(§3) L. gasseri survived better in the assay system than did L. jensenii. Undiluted lactate (5%) affected the survival of Lactobacillus.

[4] = test system: L. gasseri; experiment: Survival of L. gasseri in lactate with LF; settings: rHLF 2 mg/ml in lactate, 2 h of incubation
Protocol: as §1, §2, §3

B1: rHLF: Recombinant human LF obtained from Agennix (protein, UniProt P02788 20-710, looked up)
Lactotransferrin: GRRRSVQWCAVSQPEATKCFQWQRNMRKVRGPPVSCIKRDSPIQCIQAIAENRADAVTLDGGFIYEAGLAPYKLRPVAAEVYGTERQPRTHYYAVAVVKKGGSFQLNELQGLKSCHTGLRRTAGWNVPIGTLRPFLNWTGPPEPIEAAVARFFSASCVPGADKGQFPNLCRLCAGTGENKCAFSSQEPYFSYSGAFKCLRDGAGDVAFIRESTVFEDLSDEAERDEYELLCPDNTRKPVDKFKDCHLARVPSHAVVARSVNGKEDAIWNLLRQAQEKFGKDKSPKFQLFGSPSGQKDLLFKDSAIGFSRVPPRIDSGLYLGSGYFTAIQNLRKSEEEVAARRARVVWCAVGEQELRKCNQWSGLSEGSVTCSSASTTEDCIALVLKGEADAMSLDGGYVYTAGKCGLVPVLAENYKSQQSSDPDPNCVDRPVEGYLAVAVVRRSDTSLTWNSVKGKKSCHTAVDRTAGWNIPMGLLFNQTGSCKFDEYFSQSCAPGSDPRSNLCALCIGDEQGENKCVPNSNERYYGYTGAFRCLAENAGDVAFVKDVTVLQNTDGNNNEAWAKDLKLADFALLCLDGKRKPVTEARSCHLAMAPNHAVVSRMDKVERLKQVLLHQQAKFGRNGSDCPDKFCLFQSETKNLLFNDNTECLARLHGKTTYEKYLGPQYVAGITNLKKCSTSPLLEACEFLRK
[1]; lactate 0.2%, 2 and 20 h
  fungicidal effect on C. albicans, rHLF in comparison to LF: the stronger effect of rHLF was observed only after a longer incubation time
[1]; lactate 1%, higher LF concentrations
  fungicidal effect on C. albicans, rHLF in comparison to LF: stronger effect
[1]; rHLF 0.5-1.0 mg/ml, lactate 1%, 2 h
  killing of the inoculate: ~99%
[2]
  killing of E. coli, rHLF compared with LF: the most effective of the two LFs
[3]
  resistance of L. jensenii to the antibacterial effect: more resistant
[4]
  effect on L. gasseri survival beyond that of lactate: no additional effects; also recorded: survived equally well
